Assay [1] addresses human CXCR4 (human). The assay can be described thus: competition vs [125I]-238D2 (3 nM), membranes of HEK293T cells expressing CXCR4.
For assay [2], the target named is human CXCR4 (human). Put plainly: competition vs [125I]-238D4 (3 nM), membranes of HEK293T cells expressing CXCR4.
For assay [3], the target named is human CXCR4 (human). The assay can be described thus: competition vs [125I]-CXCL12 (40 pM), membranes of HEK293T cells expressing CXCR4.
Assay [4] has as its target human CXCR4 (human).
The target of assay [5] is human CXCR4 (human). The assay can be described thus: cell-based or functional assay.
Assay [6] addresses human CXCR4 (human). Put plainly: competition with [125I]-238D2 on HEK293T-CXCR4 membranes.
The target of assay [7] is human CXCR4 (human). Put plainly: competition with [125I]-238D4 on HEK293T-CXCR4 membranes.
Assay [8] deals with human CXCR4 (human). Put plainly: competition with [125I]-CXCL12 on HEK293T-CXCR4 membranes.
In assay [9] the target is human CXCR4 (human). The assay can be described thus: periplasmic fraction (1:10), displacement of [125I]-CXCL12, HEK293T-CXCR4 membranes; - = 0-29%, + = 30-69%, ++ = 70-100%. On the technique in general: In a radioligand displacement assay an active substance lowers the binding of a labelled ligand.

Sequence of Nanobody 238D2 (VHH) (VHH): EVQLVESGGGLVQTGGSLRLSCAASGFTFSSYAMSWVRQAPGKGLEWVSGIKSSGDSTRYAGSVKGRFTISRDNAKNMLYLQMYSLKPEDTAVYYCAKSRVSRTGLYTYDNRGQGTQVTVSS

Consider monoclonal antibody 12G5, for which the Displacem. (%) in the assay with human CXCR4 (human) [1] stood at 89%; in the assay with human CXCR4 (human) [2], 90%; with human CXCR4 (human) [3] it was 54%. Moreover, the pKi in the assay with human CXCR4 (human) [1] worked out at 9.65; in the assay with human CXCR4 (human) [2], 9.31; in the assay with human CXCR4 (human) [3], 9.19.

In the assay with human CXCR4 (human) [4], Nanobody 238D2 (VHH) yielded an IC50 (read off the curve), migration of Jurkat cells towards 0.3 nM CXCL12 of 8 nM. In the assay with human CXCR4 (human) [5], this substance showed an Anti-HIV-1 activity (in nM), MT-4/HE of 26.7 nM; an Anti-HIV-1 activity (in nM), MT-4/NL4.3 of 30.7 nM; an Anti-HIV-1 activity (in nM), PBMC/HE of 44.7 nM; an Anti-HIV-1 activity (in nM), PBMC/NL4.3 of 30.9 nM. In addition, in the assay with human CXCR4 (human) [5], the Anti-HIV-1 activity (in nM), U87.CD4.CXCR4/NL4.3 was determined as 44.7 nM; the CRE activation, HEK293T-CXCR4-CREbgal/0.01-100 nM CXCL12, Imax (%) was found to be 104%; the Chemotaxis, Jurkat/0.3 nM CXCL12, Imax (%) stood at 106%; the IC50, HIV-1 NL4.3, MT-4 cells, exp. 1 was 0.701 µg/mL. Besides, in the assay with human CXCR4 (human) [5], the IC50, HIV-1 NL4.3, PBMC donor 1 came out at 0.468 µg/mL; the IC50, HIV-1 NL4.3, PBMC donor 2 is 0.307 µg/mL; the IC50, HIV-1 UG270, PBMC donor 1 was found to be 0.492 µg/mL; the IC50, HIV-1 UG270, PBMC donor 2 worked out at 0.447 µg/mL. For the same substance, in the assay with human CXCR4 (human) [5], the IC90, HIV-1 NL4.3, MT-4 cells, exp. 1 was determined as 0.849 µg/mL; the IC90, HIV-1 NL4.3, PBMC donor 1 is more than 1 µg/mL; the IC90, HIV-1 NL4.3, PBMC donor 2 was more than 1 µg/mL; the IC90, HIV-1 UG270, PBMC donor 1 was more than 1 µg/mL. For the same substance, in the assay with human CXCR4 (human) [5], the IC90, HIV-1 UG270, PBMC donor 2 was found to be 0.851 µg/mL; the IP accumulation, HEK293T-CXCR4-Gαqi5/30 nM CXCL12, Imax (%) turned out to be 86%; the nM IC50, HIV-1 NL4.3, PBMC donor 1 stood at 31.2 nM; the nM IC50, HIV-1 NL4.3, PBMC donor 2 was 20.5 nM. In addition, in the assay with human CXCR4 (human) [5], the nM IC50, HIV-1 UG270, PBMC donor 1 worked out at 32.8 nM and the nM IC50, HIV-1 UG270, PBMC donor 2 is 29.8 nM. The IC50 (read off the curve) with human CXCR4 (human) [6] came out at 6 nM. The substance also returned an IC50 (read off the curve) in the assay with human CXCR4 (human) [7] of 4 nM. Moreover, in the assay with human CXCR4 (human) [8], the IC50 (read off the curve) is 20 nM. In the assay with human CXCR4 (human) [1], the Displacem. (%) was determined as 97% and the pKi was found to be 8.41. In addition, the pKi with human CXCR4 (human) [2] was 8.23. In the assay with human CXCR4 (human) [3], this substance had a Displacem. (%) of 93% and a negative logarithm of the Ki (pKi) of 8.01. In addition, the percent inhibition of specific [125I]-CXCL12 binding in the assay with human CXCR4 (human) [9] was in the range of 70 to 100%.

The pKi is the Ki on a negative log10 scale, so that one unit is a factor of ten. A higher pKi goes with a small Ki.

Source of the values: patent US20110318347A1.
